Measurements from US20110118131A1 (published 2011).

Target: T1, IL-1beta (UniProt P01584 117-269)
T1 construct: also called IL-1β
Experiment: Biacore

fold difference in affinity vs parental	binding result	Binder
–	no binding	XPA23 Fab, heavy chain F33R (Fab, V domains shown) VH: EVQLLESGGGLVQPGGSLRLSCAASGFTFSKYRMFWVRQAPGKGLEWVSVISPSGGMTRYADSVKGRFTISRDNSKNTLYLQMNSLRAEDTAVYYCARVGYGGNSDYWGQGTLVTVSS VL: DIQMTQSPSSVSASVGDRLTIICRASQDINRWLAWYQQTPGNAPKLLIHSATSLQSGVPSRFSGSGSGTDFTLTINSLQPEDFATYYCQQADSFPLTFGGGTKVEIK
0.06 fold	–	XPA23 Fab, heavy chain F35D (Fab, V domains shown) VH: EVQLLESGGGLVQPGGSLRLSCAASGFTFSKYFMDWVRQAPGKGLEWVSVISPSGGMTRYADSVKGRFTISRDNSKNTLYLQMNSLRAEDTAVYYCARVGYGGNSDYWGQGTLVTVSS VL: DIQMTQSPSSVSASVGDRLTIICRASQDINRWLAWYQQTPGNAPKLLIHSATSLQSGVPSRFSGSGSGTDFTLTINSLQPEDFATYYCQQADSFPLTFGGGTKVEIK
–	no binding	XPA23 Fab, heavy chain F33H (Fab, V domains shown) VH: EVQLLESGGGLVQPGGSLRLSCAASGFTFSKYHMFWVRQAPGKGLEWVSVISPSGGMTRYADSVKGRFTISRDNSKNTLYLQMNSLRAEDTAVYYCARVGYGGNSDYWGQGTLVTVSS VL: DIQMTQSPSSVSASVGDRLTIICRASQDINRWLAWYQQTPGNAPKLLIHSATSLQSGVPSRFSGSGSGTDFTLTINSLQPEDFATYYCQQADSFPLTFGGGTKVEIK
0.73 fold	–	XPA23 Fab, heavy chain F33S (Fab, V domains shown) VH: EVQLLESGGGLVQPGGSLRLSCAASGFTFSKYSMFWVRQAPGKGLEWVSVISPSGGMTRYADSVKGRFTISRDNSKNTLYLQMNSLRAEDTAVYYCARVGYGGNSDYWGQGTLVTVSS VL: DIQMTQSPSSVSASVGDRLTIICRASQDINRWLAWYQQTPGNAPKLLIHSATSLQSGVPSRFSGSGSGTDFTLTINSLQPEDFATYYCQQADSFPLTFGGGTKVEIK
0.04 fold	–	XPA23 Fab, heavy chain D106K (Fab, V domains shown) VH: EVQLLESGGGLVQPGGSLRLSCAASGFTFSKYFMFWVRQAPGKGLEWVSVISPSGGMTRYADSVKGRFTISRDNSKNTLYLQMNSLRAEDTAVYYCARVGYGGNSKYWGQGTLVTVSS VL: DIQMTQSPSSVSASVGDRLTIICRASQDINRWLAWYQQTPGNAPKLLIHSATSLQSGVPSRFSGSGSGTDFTLTINSLQPEDFATYYCQQADSFPLTFGGGTKVEIK
0.79 fold	–	XPA23 Fab, heavy chain F33W (Fab, V domains shown) VH: EVQLLESGGGLVQPGGSLRLSCAASGFTFSKYWMFWVRQAPGKGLEWVSVISPSGGMTRYADSVKGRFTISRDNSKNTLYLQMNSLRAEDTAVYYCARVGYGGNSDYWGQGTLVTVSS VL: DIQMTQSPSSVSASVGDRLTIICRASQDINRWLAWYQQTPGNAPKLLIHSATSLQSGVPSRFSGSGSGTDFTLTINSLQPEDFATYYCQQADSFPLTFGGGTKVEIK
–	no binding	XPA23 Fab, heavy chain D106F (Fab, V domains shown) VH: EVQLLESGGGLVQPGGSLRLSCAASGFTFSKYFMFWVRQAPGKGLEWVSVISPSGGMTRYADSVKGRFTISRDNSKNTLYLQMNSLRAEDTAVYYCARVGYGGNSFYWGQGTLVTVSS VL: DIQMTQSPSSVSASVGDRLTIICRASQDINRWLAWYQQTPGNAPKLLIHSATSLQSGVPSRFSGSGSGTDFTLTINSLQPEDFATYYCQQADSFPLTFGGGTKVEIK
–	no binding	XPA23 Fab, heavy chain D106W (Fab, V domains shown) VH: EVQLLESGGGLVQPGGSLRLSCAASGFTFSKYFMFWVRQAPGKGLEWVSVISPSGGMTRYADSVKGRFTISRDNSKNTLYLQMNSLRAEDTAVYYCARVGYGGNSWYWGQGTLVTVSS VL: DIQMTQSPSSVSASVGDRLTIICRASQDINRWLAWYQQTPGNAPKLLIHSATSLQSGVPSRFSGSGSGTDFTLTINSLQPEDFATYYCQQADSFPLTFGGGTKVEIK
–	no binding	XPA23 Fab, heavy chain D106Y (Fab, V domains shown) VH: EVQLLESGGGLVQPGGSLRLSCAASGFTFSKYFMFWVRQAPGKGLEWVSVISPSGGMTRYADSVKGRFTISRDNSKNTLYLQMNSLRAEDTAVYYCARVGYGGNSYYWGQGTLVTVSS VL: DIQMTQSPSSVSASVGDRLTIICRASQDINRWLAWYQQTPGNAPKLLIHSATSLQSGVPSRFSGSGSGTDFTLTINSLQPEDFATYYCQQADSFPLTFGGGTKVEIK
0.85 fold	–	XPA23 Fab, heavy chain F33K (Fab, V domains shown) VH: EVQLLESGGGLVQPGGSLRLSCAASGFTFSKYKMFWVRQAPGKGLEWVSVISPSGGMTRYADSVKGRFTISRDNSKNTLYLQMNSLRAEDTAVYYCARVGYGGNSDYWGQGTLVTVSS VL: DIQMTQSPSSVSASVGDRLTIICRASQDINRWLAWYQQTPGNAPKLLIHSATSLQSGVPSRFSGSGSGTDFTLTINSLQPEDFATYYCQQADSFPLTFGGGTKVEIK
0.02 fold	–	XPA23 Fab, heavy chain D106Q (Fab, V domains shown) VH: EVQLLESGGGLVQPGGSLRLSCAASGFTFSKYFMFWVRQAPGKGLEWVSVISPSGGMTRYADSVKGRFTISRDNSKNTLYLQMNSLRAEDTAVYYCARVGYGGNSQYWGQGTLVTVSS VL: DIQMTQSPSSVSASVGDRLTIICRASQDINRWLAWYQQTPGNAPKLLIHSATSLQSGVPSRFSGSGSGTDFTLTINSLQPEDFATYYCQQADSFPLTFGGGTKVEIK
0.03 fold	–	XPA23 Fab, heavy chain D106S (Fab, V domains shown) VH: EVQLLESGGGLVQPGGSLRLSCAASGFTFSKYFMFWVRQAPGKGLEWVSVISPSGGMTRYADSVKGRFTISRDNSKNTLYLQMNSLRAEDTAVYYCARVGYGGNSSYWGQGTLVTVSS VL: DIQMTQSPSSVSASVGDRLTIICRASQDINRWLAWYQQTPGNAPKLLIHSATSLQSGVPSRFSGSGSGTDFTLTINSLQPEDFATYYCQQADSFPLTFGGGTKVEIK

Further lines, the binder ahead of its results:

Binder	fold difference in affinity vs parental	binding result
XPA23 Fab, heavy chain V50N (Fab, V domains shown) VH: EVQLLESGGGLVQPGGSLRLSCAASGFTFSKYFMFWVRQAPGKGLEWVSNISPSGGMTRYADSVKGRFTISRDNSKNTLYLQMNSLRAEDTAVYYCARVGYGGNSDYWGQGTLVTVSS VL: DIQMTQSPSSVSASVGDRLTIICRASQDINRWLAWYQQTPGNAPKLLIHSATSLQSGVPSRFSGSGSGTDFTLTINSLQPEDFATYYCQQADSFPLTFGGGTKVEIK	0.03 fold	–
XPA23 Fab, heavy chain F33E (Fab, V domains shown) VH: EVQLLESGGGLVQPGGSLRLSCAASGFTFSKYEMFWVRQAPGKGLEWVSVISPSGGMTRYADSVKGRFTISRDNSKNTLYLQMNSLRAEDTAVYYCARVGYGGNSDYWGQGTLVTVSS VL: DIQMTQSPSSVSASVGDRLTIICRASQDINRWLAWYQQTPGNAPKLLIHSATSLQSGVPSRFSGSGSGTDFTLTINSLQPEDFATYYCQQADSFPLTFGGGTKVEIK	0.86 fold	–
XPA23 Fab, heavy chain D106H (Fab, V domains shown) VH: EVQLLESGGGLVQPGGSLRLSCAASGFTFSKYFMFWVRQAPGKGLEWVSVISPSGGMTRYADSVKGRFTISRDNSKNTLYLQMNSLRAEDTAVYYCARVGYGGNSHYWGQGTLVTVSS VL: DIQMTQSPSSVSASVGDRLTIICRASQDINRWLAWYQQTPGNAPKLLIHSATSLQSGVPSRFSGSGSGTDFTLTINSLQPEDFATYYCQQADSFPLTFGGGTKVEIK	0.02 fold	–
XPA23 Fab, heavy chain D106N (Fab, V domains shown) VH: EVQLLESGGGLVQPGGSLRLSCAASGFTFSKYFMFWVRQAPGKGLEWVSVISPSGGMTRYADSVKGRFTISRDNSKNTLYLQMNSLRAEDTAVYYCARVGYGGNSNYWGQGTLVTVSS VL: DIQMTQSPSSVSASVGDRLTIICRASQDINRWLAWYQQTPGNAPKLLIHSATSLQSGVPSRFSGSGSGTDFTLTINSLQPEDFATYYCQQADSFPLTFGGGTKVEIK	0.07 fold	–
XPA23 Fab, heavy chain D106E (Fab, V domains shown) VH: EVQLLESGGGLVQPGGSLRLSCAASGFTFSKYFMFWVRQAPGKGLEWVSVISPSGGMTRYADSVKGRFTISRDNSKNTLYLQMNSLRAEDTAVYYCARVGYGGNSEYWGQGTLVTVSS VL: DIQMTQSPSSVSASVGDRLTIICRASQDINRWLAWYQQTPGNAPKLLIHSATSLQSGVPSRFSGSGSGTDFTLTINSLQPEDFATYYCQQADSFPLTFGGGTKVEIK	0.04 fold	–
XPA23 Fab, heavy chain F33Y (Fab, V domains shown) VH: EVQLLESGGGLVQPGGSLRLSCAASGFTFSKYYMFWVRQAPGKGLEWVSVISPSGGMTRYADSVKGRFTISRDNSKNTLYLQMNSLRAEDTAVYYCARVGYGGNSDYWGQGTLVTVSS VL: DIQMTQSPSSVSASVGDRLTIICRASQDINRWLAWYQQTPGNAPKLLIHSATSLQSGVPSRFSGSGSGTDFTLTINSLQPEDFATYYCQQADSFPLTFGGGTKVEIK	0.77 fold	–
XPA23 Fab, heavy chain F33Q (Fab, V domains shown) VH: EVQLLESGGGLVQPGGSLRLSCAASGFTFSKYQMFWVRQAPGKGLEWVSVISPSGGMTRYADSVKGRFTISRDNSKNTLYLQMNSLRAEDTAVYYCARVGYGGNSDYWGQGTLVTVSS VL: DIQMTQSPSSVSASVGDRLTIICRASQDINRWLAWYQQTPGNAPKLLIHSATSLQSGVPSRFSGSGSGTDFTLTINSLQPEDFATYYCQQADSFPLTFGGGTKVEIK	0.78 fold	–
XPA23 Fab, heavy chain F33N (Fab, V domains shown) VH: EVQLLESGGGLVQPGGSLRLSCAASGFTFSKYNMFWVRQAPGKGLEWVSVISPSGGMTRYADSVKGRFTISRDNSKNTLYLQMNSLRAEDTAVYYCARVGYGGNSDYWGQGTLVTVSS VL: DIQMTQSPSSVSASVGDRLTIICRASQDINRWLAWYQQTPGNAPKLLIHSATSLQSGVPSRFSGSGSGTDFTLTINSLQPEDFATYYCQQADSFPLTFGGGTKVEIK	0.97 fold	–
XPA23 Fab, heavy chain D106R (Fab, V domains shown) VH: EVQLLESGGGLVQPGGSLRLSCAASGFTFSKYFMFWVRQAPGKGLEWVSVISPSGGMTRYADSVKGRFTISRDNSKNTLYLQMNSLRAEDTAVYYCARVGYGGNSRYWGQGTLVTVSS VL: DIQMTQSPSSVSASVGDRLTIICRASQDINRWLAWYQQTPGNAPKLLIHSATSLQSGVPSRFSGSGSGTDFTLTINSLQPEDFATYYCQQADSFPLTFGGGTKVEIK	0.06 fold	–
XPA23 Fab, heavy chain F33D (Fab, V domains shown) VH: EVQLLESGGGLVQPGGSLRLSCAASGFTFSKYDMFWVRQAPGKGLEWVSVISPSGGMTRYADSVKGRFTISRDNSKNTLYLQMNSLRAEDTAVYYCARVGYGGNSDYWGQGTLVTVSS VL: DIQMTQSPSSVSASVGDRLTIICRASQDINRWLAWYQQTPGNAPKLLIHSATSLQSGVPSRFSGSGSGTDFTLTINSLQPEDFATYYCQQADSFPLTFGGGTKVEIK	0.92 fold	–
